Patent US20060026702A1, “Phosphoinositide 3-kinase mediated inhibition of GPCRs” (DUKE UNIVERSITY, priority 2002, published 2006)

How the values were obtained:
Format in all cases: cell-based
β2AR-YFP = biological target: T1, β2AR-YFP (Homo sapiens, UniProt P07550); test: Endocytosis of β2AR-YFP in live cells by confocal microscopy; conditions: 10 μM isoproterenol, 10 min; HEAT co-expressed
T1 construct: expressed in transfected cells; host or cells: HEK 293
Protocol: Confocal Microscopy—Confocal microscopy was performed as previously described. […] Cells were split into 35 mm^2 dishes with glass bottoms for observation using a Zeiss LSM-510 confocal microscope. […] For analyses of the HEAT domain, HEK 293 cells were transfected with the plasmids containing cDNAs encoding either the β2AR-YFP (2 μg) or β2AR-YFP (2 μg) and HEAT domain (4 μg). Cells were plated onto glass bottom dishes for observation in the confocal microscope. […] Cells were permeablized with 0.1% Triton X-100 in phosphate-buffered saline for 20 min, incubated in 1% BSA in phosphate-buffered saline for 1 hr. Cells were washed with 1× phosphate-buffered saline and incubated with anti-HA or anti-FLAG monoclonal antibody (1:250) with 1% BSA in 1× phosphate-buffered saline for 1 hr. Cells were washed and incubated with goat anti-mouse IgG conjugated with Texas Red (1:500) (Molecular Probes) for 1 hr. Samples were visualized using single sequential line excitation filters at 488 and 568 nm and emission filter sets at 505-550 nm for GFP detection and 585 for Texas Red detection.
Prior to agonist, the distribution of β2AR-YFP was found distinctly at the plasma membrane (FIG. 11B, panel 1). […] With time, this was followed by the formation of cytoplasmic aggregates (FIG. 11B, panel 3), and then with the complete loss of membrane fluorescence (FIG. 11B, panels 3 and 7) (arrowheads).

β2AR complex = test: Recruitment of AP-2 adaptin and clathrin to the agonist-stimulated β2AR complex (immunoprecipitation, immunoblot); conditions: HEAT co-transfected
Protocol: Immunoblotting and Detection—Immunoblotting and detection of PI3K, βARK1, HA-PI3Kγ, HA-ΔPI3Kγ, Myc-PI3Kα, FLAG-HEAT, PI3KΔHEAT-HA, FLAG-β2AR, HA-β2AR, β-adaptin and clathrin was carried out as previously described. Immunoprecipitating antibodies were added to 500 μg of cell lysate in lysis buffer followed by the addition of 35 μl of 1:1 Protein A- or G-agarose. Samples were rocked overnight at 4° C. then centrifuged at 12,000×g for 5 min. Immunoprecipitates were washed twice with lysis buffer, twice with 1×PBS and resuspended in 1×SDS-gel loading buffer. Proteins were resolved by SDS-polyacrylamide gel electrophoresis and blotted on to PVDF membrane (Bio-Rad). Blots were incubated with antibodies recognizing PI3K, Myc (Santa-Cruz), β-adaptin, clathrin heavy chain (BD Transduction Laboratories), HA (Roche Molecular Biochemicals) and FLAG (Sigma) at 1:2000 dilution and the βARK1 monoclonal antibody at 1:10,000 dilution. Blots were subsequently incubated with appropriate secondary antibody (1:2000 dilution) conjugated to horseradish peroxidase (Amersham Pharmacia Biotech) and detection was carried out using enhanced chemiluminescence. […]
The present inventors determined that βARK1-mediated localization of PI3K within the activated receptor complex is responsible for the generation of D-3 phosphatidylinositols necessary for the efficient recruitment of adaptin to the P2AR complex. […]

phospho-PKB = test: PKB activation (phospho-PKB immunoblot) in HEK 293 cells; conditions: IGF, carbachol or isoproterenol stimulation; HEAT transfected

B1: HEAT: 197 amino acid HEAT domain of PI3Kγ, FLAG epitope-tagged (SEQ ID NO: 2), overexpressed in cells (protein, listed as Homo sapiens)
chain: MDYKDDDDKHPIALPKHQPTPDDRVRAEMPNQLRKQLEAIIATDTAEDKELLWHFRYESLKHPKAYPKLFSSVKWGQQEIVAKTYQLLARREVWDQSALDVGLTMQLLDCNFSDENVRAIAVQKLESLEDDDVLHYLLQLVQAVKFEPYHDSALARFLLKRGLRNKRIGHFLFWFLRSEIAQSRHYQQRFAVILEAYLRGCGTA
modifications: FLAG tag
With B1 the “receptor endocytosis (redistribution of β2AR-YFP)” value (β2AR-YFP) was “completely inhibited”, the “recruitment of adaptin to the agonist-stimulated β2AR complex” value (β2AR complex; 10 μM isoproterenol 0-10 min) was “completely abolished” and the “clathrin co-immunoprecipitated with the receptor after agonist” value (β2AR complex) was “attenuated”. The “cellular signaling downstream of PI3K (PKB activation)” value (phospho-PKB) was “no effect”.
